Earlier results in patent US8217152B2, “Process for the purification of IL-18 binding protein” (Ares Trading S.A., priority 2005, dated 2012).

Assays:
IL-18 = target: T1, IL-18 (Homo sapiens, UniProt Q14116); settings: Kim et al. 2000; read-out: dissociation constant (Kd) for IL-18
T1 sequence (Q14116 37-193): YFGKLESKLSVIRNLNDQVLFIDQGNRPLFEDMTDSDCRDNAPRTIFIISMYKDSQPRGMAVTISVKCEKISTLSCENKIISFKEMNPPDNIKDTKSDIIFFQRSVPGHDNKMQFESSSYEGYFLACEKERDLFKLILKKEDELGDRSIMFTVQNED

induction of IFN-γ = settings: mice injected with LPS
IL-18 induction of IFN-γ = settings: in vitro
[1] = system: IL-18 activation of NF-κB; settings: in vitro

B1: IL-18BP: naturally occurring soluble protein that binds IL-18 (protein, UniProt O95998 31-194, looked up)
Interleukin-18-binding protein: TPVSQTTTAATASVRSTKDPCPSQPPVFPAAKQCPALEVTWPEVEVPLNGTLSLSCVACSRFPNFSILYWLGNGSFIEHLPGRLWEGSTSRERGSTGTQLCKALVLEQLTPALHSTNFSCVLVDPEQVVQRHVVLAQLWAGLRATLPPTQEALPSSHSSPQQQG
- Kd (IL-18): 0.4 nM
- effect on induction of IFN-γ (induction of IFN-γ): inhibits
- effect on IL-18 induction of IFN-γ (IL-18 induction of IFN-γ): abolishes
- effect on IL-18 activation of NF-κB [1]: abolishes
